This passage reports Kd results from publication PMC9857240.

As a reminder, the Kd is a measure of binding affinity in units of concentration. Read a low Kd as a tighter complex.

The assay addresses His6-GFP-nCLU. Description: AlphaScreen or HTRF; 30 nM His6-GFP fusion protein with 0-60 nM biotinylated GST-IPO13; triplicates, sigmoidal association curves.

B1: biotinylated GST-IPO13 (natural protein)
chain: MERREEQLGAAGAGAAPALDFTVENVEKALHQLYYDPNIDNKNLAQKWLMQAQVSPQAWHFSWQLLQPDKVPEIQYFGASALHIKISRYWSDIPTDQYESLKAQLFTQITRFASGSKIVLTRLCVALASLALSMMPDAWPCAVADMVRLFQAEDSPVDSQGRCLALLELLTVLPEEFQTSRLPQYRKGLVRTSLAVECGTVFPLLEQLLQQPSSPSCVRQKVLKCFSSWVQLEVPLQDCEALIQAAFAALQDSELFDSSVEAIVNAISQPDAQRYVNTLLKLIPLVLGLQEQLRQAVQNGDMETSHGICRIAVALGENHSRALLDQVEHWQSFLALVNMIMFCTGIPGHYPVNETTSSLTLTFWYTLQDDILSFEAEKQAVYQQVYRPVYFQLVDVLLHKAQFPSDEEYGFWSSDEKEQFRIYRVDISDTLMYVYEMLGAELLSNLYDKLGRLLTSSEEPYSWQHTEALLYGFQSIAETIDVNYSDVVPGLIGLIPRISISNVQLADTVMFTIGALSEWLADHPVMINSVLPLVLHALGNPELSVSSVSTLKKICRECKYDLPPYAANIVAVSQDVLMKQIHKTSQCMWLMQALGFLLSALQVEEILKNLHSLISPYIQQLEKLAEEIPNPSNKLAIVHILGLLSNLFTTLDVSHHEDDHEGPELRKLPVPQGPNPVVVVLQQVFQLIQKVLSKWLNDAQVVEAVCAIFEKSVKTLLDDFAPMVPQLCEMLGRMYSTVPQASALDLTRQLVHIFAHEPAHFPPIEALFLLVTSVTLSLFQQGPRDHPDIVDSFMQLLAQALKRKPDLFLCERLDVKAVFQCAVLALKFPEAPTVKASCGFFTELLPRCGEIESVGKVVQEDGRMLLIAVLEAIGGQASRSLMDCFADILFALNKHCFSLLSMWIKEALQPPGFPSARLSPEQKDTFSQQILRERVNKRRVKEMVKEFTLLCRGLHGTDYTADY
modifications: biotinylated
As for B1, the Kd came out at 2.8 nM.
